# From patent US20110009342A1, “USES OF PDCD5 POLYPEPTIDE FOR TUMOR CHEMOTHERAPY AND ORGAN PROTECTION” (priority 2008, published 2011)
# Tests used:
# [1] = tested on: U937 cells; assay: cell apoptosis assay, DNR; type: cell-based
# Experimental: Methods: Cell apoptosis assay: U937 cells (ATCC), in the logarithmic phase, were maintained in RPMI 1640 (Life Technologies, USA) supplemented with 10% FBS (Hyclone, USA), and were adjusted to a density of 2×10^5 cells/mL and then were divided into control groups and test groups. U937 cells in the control groups were treated with DNR (Pharmacia Italia SPA) alone, with the final concentrations of 0 μg/mL, 0.05 μg/mL, and 0.1 μg/mL. U937 cells in the test groups were treated with DNR of various concentrations combined with PDCD5 of various concentrations, with the final concentrations of PDCD5 being 0 μg/mL, 2.5 μg/mL, and 5 μg/mL, respectively. After being incubated for 24 hours in a 37° C., 5% CO2 and saturatedly humidified incubator, the cells were stained with Annexin-V/PI (Biosea) and then were analyzed for apoptosis with a FACSCalibur flow cytometer.
# [2] = tested on: U937 cells; assay: colony forming ability (CFA), DNR; type: cell-based
# Experimental: (§1) Analysis for colony forming ability (CFA): U937 cells (ATCC), in the logarithmic phase, were maintained in RPMI 1640 medium supplemented with 20% FBS and 0.4% methyl cellulose (Sigma) by the semi-solid colony culture method and were adjusted to a density of 5×10^3 cells/mL. The cells were divided into control groups and test groups, and each group was assayed in triple wells. U937 cells in the control groups were treated with DNR alone, with the final concentrations of 0 ng/mL and 0.5 ng/mL. U937 cells in the test group were treated with DNR of various concentrations combined with PDCD5 of various concentrations, while the final concentrations of PDCD5 were 0 μg/mL, 0.625 μg/mL, 1.25 μg/mL, and 2.5 μg/mL, respectively. After incubation for 14 days in a 37° C., 5% CO2 and saturatedly humidified incubator, a colony with more than 30 cells was counted by an inverted microscope in order to analyze colony forming ability of each group. The colony forming ability was shown as the ratio of average number of colony in each group versus that of the untreated control group in which the final concentrations of DNR and PDCD5 were 0 μg/mL.
# [3] = tested on: Raji cells; assay: FITC/Annexin-V apoptosis by flow cytometry, DNR; type: cell-based
# Experimental: Methods: Raji cells were cultured in RPMI 1640 medium (Life Technologies, USA) supplemented with 10% Fetal Bovine Serum (FBS, Hyclone, USA). The cells were seeded in 24-well plates with 2×10^5 cells per well. rhPDCD5 was added to each well and the final concentrations were 0 μg/mL, 2.5 μg/mL and 5 μg/mL, respectively. Subsequently, DNR was added and the final concentrations were 0 μg/mL and 0.05 μg/mL, and RPMI 1640 medium supplemented with 10% FBS was added to ensure the system was brought to 1 mL. After 24 h incubation, the cells were stained with FITC/Annexin-V (Beijing Biosea Biotechnology Co., Ltd.) and the apoptosis was detected by flow cytometry.
# [4] = tested on: Raji cells; assay: colony-forming ability (CFA) assay, ADM; type: cell-based
# Experimental: as §1, with “The colony forming ability was shown as the ratio of average number of colony in each group versus that of the untreated control group in which the final concentrations of DNR and PDCD5 were 0 μg/mL.” left out
# Methods: Colony-forming ability (CFA) assay: Raji cells of logarithmic growth phase were cultured, and the method was the same as that in Example 8. […] The numbers of colonies (containing≧30 cells) were counted by inverted microscope to observe the CFA, which is indicated by the ratio of average number of colony formation in each of the test groups versus that of the untreated control group.
# [5] = tested on: HL-60 cells; assay: cell apoptosis assay, As2O3; type: cell-based
# Experimental: Methods: Cell apoptosis assay: HL-60 cells (ATCC) of logarithmic growth phase were cultured and the density of cells was 2×10^5/mL. The cells were divided into control and test groups. In the control groups, the HL60 cells were treated only with As2O3 (Harbin Yida Pharmaceutical Co., Ltd.), and the final concentration of As2O3 were 0 μg/mL, 0.25 μg/mL and 0.5 μg/mL, respectively. In the test groups, the HL60 cells were treated with As2O3 in the various concentrations combined with PDCD5 in various concentrations, the final concentrations of PDCD5 being 0 μg/mL, 5 μg/mL, 10 μg/mL and 20 μg/mL, respectively. The cells were incubated in a 37° C., 5% CO2 and saturatedly humidified incubator for 24 h, and subsequently were stained with Annexin-V/PI and detected for apoptosis by flow cytometer.
# [6] = tested on: U937 xenografts; assay: U937 nude mice xenograft model, DNR; type: in vivo, BALB/c nude mice; conditions: fifteenth day; rhPDCD5 40 μg into the tumor, DNR 40 μg intraperitoneal, once a day for 8 days
# Experimental: Methods: U937 nude mice xenograft model: BALB/c nude mice (5-6 weeks of age) were pretreated with cyclophosphamide (100 mg/kg, injected intraperitoneally once a day for two consecutive days). On day 3, 1×10^7 (100 μl) of U937 cells were subcutaneously (s.c.) injected into a single flank of each of the mice. The treatments began on day 7 after inoculation when the average tumor diameter reached about 5 mm. The mice were divided randomly into four groups (n=6, i.e., six mice in each group) and treated with normal saline (NS), rhPDCD5 (40 μg, locally injected into the tumor), DNR (40 μg, intraperitoneal) or DNR (40 μg) plus rhPDCD5 (40 μg), once a day for 8 consecutive days.
# Tumor volume (V) was determined every other day by vernier caliper measurements and calculated based on the equation of V=ab^2/2, where “a” refers to a long tumor diameter and “b” refers to a short diameter, then tumor volume growth curve was drawn. The percentage of reductions in tumor growth was calculated using the formula: [1-(Tf-Ti)/(Cf-Ci)]×100, where Tf and Ti are the final and initial mean tumor volumes, respectively, of the group receiving a specific treatment, and Cf and Ci are the final and initial mean tumor volumes, respectively, of the NS control group. After the treatment, tumors were collected and weighed and tissues were sectioned and processed by histological hematoxylin and eosin (H&E) staining. Results were statistically analyzed using SPSS 13.0. The measurements were expressed as the mean±standard deviation. Data were analyzed by the single-factor ANOVA and Student's t test and are presented as mean±standard deviation (SD). P<0.05 was considered statistically significant.
# [7] = tested on: 7721 liver cancer cells; conditions: Li et al. 2000; cited from earlier work
# [8] = tested on: SiHa cervical cancer cells; conditions: Zhang et al. 2004; cited from earlier work
molecule,measurement,setting,value
"rhPDCD5: recombinant human programmed cell death 5 protein (SEQ ID NO:1) expressed in E. coli and purified (protein, listed as Homo sapiens) MADEELEALRRQRLAELQAKHGDPGDAAQQEAKHREAEMRNSILAQVLDQSARARLSNLALVKPEKTKAVENYLIQMARYGQLSEKVSEQGLIEILKKVSQQTEKTTTVKFNRRKVMDSDEDDDY",enhancement of DNR-induced apoptosis,[1],can significantly enhance DNR-induced apoptosis
same,enhancement of inhibition of CFA by DNR,[2],can significantly enhance the inhibition of CFA by DNR
same,effect on the CFA of U937 cells,[2]; rhPDCD5 alone,did not have significant effect
same,enhancement of DNR-induced apoptosis,[3],can significantly enhance DNR-induced apoptosis
same,enhancement of inhibition of CFA by ADM,[4],can significantly enhance the inhibition of CFA by ADM
same,enhancement of induced apoptosis,[5],can significantly enhance As2O3-induced apoptosis
same,Average size of tumors (mean ± SD),[6],571.96 ± 237.91 mm^3
same,effect on apoptosis induced by hydroxy camptothecin (HCPT),[7],could accelerate apoptosis of 7721 liver cancer cells
same,effect on apoptosis induced by IFNγ in vitro,[8],had a sensitized effect on apoptosis of SiHa cervical cancer cells
